As usually defined, the IC50 is the concentration at which inhibition is half-maximal. By Kd is commonly meant the constant that tells how readily two partners part at equilibrium.

Assay [1] deals with HLA-A*11:01. In words: IEDB peptide-MHC binding, purified MHC/competitive/fluorescence; ≥ and ≤ were set here for values at or beyond the usual limits of such assays.
Assay [2] concerns the target HLA-A*03:01. The description is as above.
Assay [3] deals with HLA-A*01:01. The assay is described as above.
Assay [4] addresses HLA-A*02:01. The assay is described as above.
A further assay deals with HLA-B*07:02. The description is as above.
Assay [5] has as its target HLA-A*02:01. The experiment in a line: IEDB peptide-MHC binding, purified MHC/competitive/fluorescence; filed as Kd, often an IC50 or EC50 that approximates it; ≥ and ≤ were set here for values at or beyond the usual limits of such assays.
A further assay addresses HLA-B*39:01. Described as above.
Another assay addresses HLA-B*27:05. Described as above.
Another assay deals with HLA-B*40:01. The description is as above. Particulars: source organism: Salmonella enterica subsp. enterica serovar Typhi.
Assay [6] addresses HLA-B*15:01. In words: IEDB peptide-MHC binding, purified MHC/competitive/fluorescence; ≥ and ≤ were set here for values at or beyond the usual limits of such assays.
Another assay deals with HLA-A*68:01. The experiment in a line: IEDB peptide-MHC binding, purified MHC/competitive/radioactivity; filed as Kd, often an IC50 or EC50 that approximates it; ≥ and ≤ were set here for values at or beyond the usual limits of such assays. Particulars: source organism: Vaccinia virus WR.
A further assay deals with HLA-A*33:01. The description is as above. Particulars: source organism: Vaccinia virus WR.
For assay [7], the target named is HLA-A*11:01. The description is as above. Particulars: source organism: Vaccinia virus WR.
For assay [8], the target named is HLA-A*03:01. The assay is described as above. Particulars: source organism: Vaccinia virus WR.
The next assay deals with HLA-A*31:01. Described as above. Particulars: source organism: Vaccinia virus WR.
Assay [9] addresses HLA-B*15:01. The experiment in a line: IEDB peptide-MHC binding, purified MHC/competitive/fluorescence; filed as Kd, often an IC50 or EC50 that approximates it; ≥ and ≤ were set here for values at or beyond the usual limits of such assays.
A further assay addresses HLA-A*30:01. The description is as above. Particulars: source organism: Human immunodeficiency virus 1.
In another assay the target is HLA-A*02:06. The description is as above. Particulars: source organism: Human immunodeficiency virus 1.
Assay [10] concerns the target HLA-A*02:03. Described as above. Particulars: source organism: Human immunodeficiency virus 1.
The next assay has as its target HLA-B*18:01. The assay is described as above.
Assay [11] has as its target HLA-A*11:01. Described as above. Particulars: source organism: Human immunodeficiency virus 1.
Another assay concerns the target HLA-B*15:17. The assay is described as above.
Assay [12] deals with HLA-A*01:01. The assay is described as above. Particulars: source organism: Human immunodeficiency virus 1.
The target in the next assay is HLA-A*26:02. Described as above. Particulars: source organism: Human immunodeficiency virus 1.
The next assay deals with HLA-B*46:01. The description is as above. Particulars: source organism: Orthohantavirus sinnombreense.
The target in another assay is HLA-B*57:01. Described as above. Particulars: source organism: Orthohantavirus sinnombreense.
The target in the next assay is HLA-B*51:01. Described as above. Particulars: source organism: Orthohantavirus sinnombreense.
For a further assay, the target named is HLA-A*26:01. The assay is described as above. Particulars: source organism: Orthohantavirus sinnombreense.
For a further assay, the target named is HLA-A*68:02. The experiment in a line: IEDB peptide-MHC binding, purified MHC/direct/fluorescence; filed as Kd, often an IC50 or EC50 that approximates it; ≥ and ≤ were set here for values at or beyond the usual limits of such assays. Particulars: source organism: Limestone Canyon virus.
The next assay deals with HLA-C*07:02. The description is as above. Particulars: source organism: Orthohantavirus sinnombreense.
Assay [13] deals with HLA-A*02:03. Described as above. Particulars: source organism: Limestone Canyon virus.
The target of assay [14] is HLA-A*03:01. The assay is described as above. Particulars: source organism: Limestone Canyon virus.
Another assay concerns the target HLA-A*02:11. The description is as above. Particulars: source organism: Limestone Canyon virus.
The target in a further assay is HLA-A*02:19. The description is as above. Particulars: source organism: Limestone Canyon virus.
The next assay has as its target HLA-A*02:12. The assay is described as above. Particulars: source organism: Limestone Canyon virus.
In a further assay the target is HLA-A*24:03. Described as above. Particulars: source organism: Limestone Canyon virus.
The target in a further assay is HLA-A*02:16. The description is as above. Particulars: source organism: Limestone Canyon virus.
For the next assay, the target named is HLA-C*15:02. The assay is described as above. Particulars: source organism: Cytophaga hutchinsonii ATCC 33406.
The next assay deals with HLA-A*24:02. In words: IEDB peptide-MHC binding, purified MHC/competitive/fluorescence; ≥ and ≤ were set here for values at or beyond the usual limits of such assays. Particulars: source organism: Zaire ebolavirus.
Setting [15] is: source organism: Zaire ebolavirus.
Setting [16] is: source organism: Salmonella enterica subsp. enterica serovar Typhi.
Setting [17] is: source organism: Vaccinia virus Copenhagen.
[18] abbreviates: source organism: Vaccinia virus.
The mark [19] stands for this setting: source organism: Human immunodeficiency virus 1.
The mark [20] stands for this setting: source organism: Orthohantavirus sinnombreense.

On to LSGVNNLEH, for which the IC50 with HLA-A*11:01 [1] (setting [15]) is 5.06 µM; in the assay with HLA-A*03:01 [2] (setting [15]), 43.5 µM; with HLA-A*01:01 [3] (setting [15]), at least 167 µM.
For YTSGKRSNT, the IC50 with HLA-A*02:01 [4] (setting [15]) was at least 354 µM; with HLA-B*07:02 (setting [15]) it was 5.9 µM.
Take KQFCLSILL: the Kd is 0.0029 µM in the assay with HLA-A*02:01 [5] (setting [16]), 0.0646 µM with HLA-B*39:01 (setting [16]), 0.208 µM in the assay with HLA-B*27:05 (setting [16]) and 0.0905 µM in the assay with HLA-B*40:01.
For MLEGETKLY, the IC50 with HLA-B*15:01 [6] (setting [17]) is 61.7 µM; in the assay with HLA-A*02:01 [4] (setting [17]), at least 166 µM; with HLA-A*01:01 [3] (setting [17]), 8.1 µM. Also, the Kd with HLA-A*68:01 was 17 µM; with HLA-A*33:01, at least 57.1 µM; with HLA-A*11:01 [7] it was 7.06 µM; with HLA-A*03:01 [8] it was 0.22 µM; with HLA-A*31:01, at least 61.4 µM.
Take AVDRGCLRI: the IC50 is 3.51 µM in the assay with HLA-A*02:01 [4] (setting [18]), 11.8 µM in the assay with HLA-A*11:01 [1] (setting [18]), 16.1 µM with HLA-A*03:01 [2] (setting [18]) and at least 183 µM with HLA-A*01:01 [3] (setting [18]).
RSLYNTVAVLY: the Kd is 1.32 µM in the assay with HLA-B*15:01 [9] (setting [19]); at least 20 µM with HLA-A*30:01; 0.597 µM in the assay with HLA-A*02:06; 1.36 µM with HLA-A*02:03 [10]; 0.25 µM in the assay with HLA-B*18:01 (setting [19]); 1.52 µM in the assay with HLA-A*11:01 [11]. For the same sequence, the Kd with HLA-B*15:17 (setting [19]) is 0.0118 µM; with HLA-A*01:01 [12] it was at least 20 µM; with HLA-A*26:02 it was 2.36 µM.
Turning to IPSSSPTTA, the half-inhibitory concentration (IC50) with HLA-B*07:02 (source organism: Sudan ebolavirus) stood at 22.1 µM.
Consider MEDNFSIYI, for which the values for the Kd in the assay with HLA-B*15:01 [9] (setting [16]) and in the assay with HLA-B*40:01 were at least 20 µM and 0.0034 µM, respectively.
As for YRTLGVFRY, the Kd was at least 20 µM with HLA-B*46:01; at least 20 µM with HLA-B*15:01 [9] (setting [20]); at least 20 µM with HLA-A*02:01 [5] (setting [20]); at least 20 µM with HLA-B*39:01 (setting [20]); 0.144 µM in the assay with HLA-B*27:05 (setting [20]); at least 20 µM with HLA-B*18:01 (setting [20]). In addition, the Kd was at least 20 µM with HLA-B*15:17 (setting [20]); at least 20 µM with HLA-B*57:01; at least 20 µM with HLA-B*51:01; at least 20 µM with HLA-A*26:01; at least 20 µM in the assay with HLA-A*68:02; 0.048 µM in the assay with HLA-C*07:02. Also, the Kd with HLA-A*02:03 [13], in the assay with HLA-A*03:01 [14], in the assay with HLA-A*02:11, with HLA-A*02:19, with HLA-A*02:12 and with HLA-A*24:03 was at least 20 µM each time. In addition, the Kd with HLA-A*02:16 is at least 20 µM.
Consider GLADAFILL, for which the dissociation constant (Kd) in the assay with HLA-A*02:01 [5] (source organism: Cytophaga hutchinsonii ATCC 33406) is 0.0006 µM; in the assay with HLA-C*15:02, at least 20 µM.
Consider FLESGAVKY, for which the IC50 with HLA-B*15:01 [6] (setting [15]) was found to be 19.5 µM; with HLA-A*02:01 [4] (setting [15]), 26.3 µM; with HLA-A*01:01 [3] (setting [15]), 3.4 µM.
Take DSDNTQSEH: in the assay with HLA-A*01:01 [3] (setting [15]), the IC50 was at least 84.2 µM.
For the sequence RTFSIPLGV, the IC50 with HLA-B*15:01 [6] (setting [15]) is at least 221 µM; in the assay with HLA-A*02:01 [4] (setting [15]) it was 0.321 µM; with HLA-B*07:02 (setting [15]), at least 167 µM; in the assay with HLA-A*11:01 [1] (setting [15]), 1.62 µM; with HLA-A*03:01 [2] (setting [15]) it was 3.46 µM; in the assay with HLA-A*24:02, 33 µM.

(Values after the Immune Epitope Database (IEDB).)
